# Measured values published in publication PMC7501309, “Structure and mechanism of a dehydratase/decarboxylase enzyme couple involved in polyketide β-methyl branch incorporation” (Scientific Reports, 2020).
# B1: PksI, bacillaene synthase decarboxylase (wild type) (enzyme, Bacillus subtilis 168)
# chain: MTHSVVELIEIESAIIQVKMQDRTHKNAFSQELTDDLIQAFEYIRQNPKYKAVILTGYDNYFASGGTQEGLLRIQQGLTKFTDDNLYSLALDCEIPVIAAMQGHGIGGGFVMGLFADIVILSRESVYTANFMKYGFTPGMGATFIVPKKLGFSLAQEILLNAGSYRGADLEKRGVPFKVLPRAEVLDYAVELAQELAEKPRNSLVTLKDHLVAPLRDQLPRVIEQELMMHEKTFHHEEVKSRIKGLYGN
# notes: PksI of Bacillus subtilis 168, amplified from genomic DNA and cloned into pOPINF; the crystal models hold residues 1-249; The His tag is 3C protease cleavable (pOPINF); also called WT PksI; source: E. coli BL21(DE3), purified (HisTrap, Superdex 200 SEC)
# B2: PksH, bacillaene synthase dehydratase (wild type) (enzyme, Bacillus subtilis 168, UniProt P40805 1-259, looked up)
# chain: MDLVTYQTIKVRFQASVCYITFHRPEANNTINDTLIEECLQVLNQCETSTVTVVVLEGLPEVFCFGADFQEIYQEMKRGRKQASSQEPLYDLWMKLQTGPYVTISHVRGKVNAGGLGFVSATDIAIADQTASFSLSELLFGLYPACVLPFLIRRIGRQKAHYMTLMTKPISVQEASEWGLIDAFDAESDVLLRKHLLRLRRLNKKGIAHYKQFMSSLDHQVSRAKATALTANQDMFSDPQNQMGIIRYVETGQFPWEDQ
# notes: PksH of Bacillus subtilis 168, amplified from genomic DNA and cloned into pET28a (NdeI/XhoI); The His tag is thrombin cleavable (pET28a); also called WT PksH; source: E. coli BL21(DE3), purified (HisTrap, Superdex 200 SEC)
# Biological target: the molecule itself
# Assay: SEC; analytical Superdex 200 10/60; 100 µl at 0.5 mg/ml; 50 mM Tris-HCl, 150 mM NaCl, 5% glycerol, pH 7.5 (legend: 20 mM Tris-HCl, 150 mM NaCl, pH 7.5); elution compared with standards
row,Protein,stoichiometry N
1,B1,3
2,B2,3
